Source: US20090318342A1, “Compounds” (IMPERIAL INNOVATIONS LIMITED, priority 2005, published 2009)
Like-named read-outs stand apart in the source and are kept apart here. Each block holds one molecule with its values, some of them ahead of it.

Biological target: T1, gelatinase A (MMP-2) (Homo sapiens, UniProt P08253)
T1 sequence (P08253 110-660): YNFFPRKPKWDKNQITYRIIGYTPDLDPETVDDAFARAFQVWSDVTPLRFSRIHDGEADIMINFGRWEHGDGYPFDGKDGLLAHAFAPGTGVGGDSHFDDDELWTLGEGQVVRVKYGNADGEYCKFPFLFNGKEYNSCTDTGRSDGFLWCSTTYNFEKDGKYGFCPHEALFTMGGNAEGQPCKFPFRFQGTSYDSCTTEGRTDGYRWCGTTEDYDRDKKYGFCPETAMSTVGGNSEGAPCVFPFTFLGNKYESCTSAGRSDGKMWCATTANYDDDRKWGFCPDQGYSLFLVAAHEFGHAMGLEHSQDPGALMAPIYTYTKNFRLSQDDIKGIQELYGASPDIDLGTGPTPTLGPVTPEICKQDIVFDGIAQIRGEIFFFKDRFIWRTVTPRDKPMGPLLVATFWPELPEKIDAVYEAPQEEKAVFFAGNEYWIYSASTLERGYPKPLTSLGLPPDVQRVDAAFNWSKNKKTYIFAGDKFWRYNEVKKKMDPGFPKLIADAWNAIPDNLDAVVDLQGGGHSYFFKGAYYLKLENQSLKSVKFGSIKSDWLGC
Assay: Enzyme inhibition kinetic study, MMP-2
Type: biochemical
Details: for Ki: read-out: Ki(app) MMP-2
Description: Enzyme inhibition kinetic studies—Inhibition kinetic studies for MMPs and TACE were carried out as described previously (19, 27) with modifications. Purified N-TIMP-3 and mutants were dialyzed against 20 mM Tris-HCl (pH 7.0), 50 mM NaCl containing 20% glycerol, centrifuged at 14,000 rpm for 10 min to remove any precipitate, and protein concentration was re-measured before conducting inhibition assays. Since NaCl inhibits the activity of the TACE ectodomain in vitro (28), we adjusted the final concentration of NaCl to 1 mM in all assays with TACE. Equal volumes (10% of total assay volume) of diluted solutions of N-TIMP-3 and mutants were added to TACE assays, resulting in a final pH of 8.8.
(Eq. 1) Tight binding inhibition:
where v is the experimentally determined reaction velocity, v0 is the uninhibited activity, E is enzyme concentration, I is inhibitor concentration, K is the apparent inhibition constant (Ki^(app)) and h is the Hill coefficient.
Inhibitory properties of mutants with purified metalloproteinases—The inhibitory activities of wild-type N-TIMP-3 and the two mutants were determined with MMPs representing four different sub-groups: full-length collagenase 1 (MMP-1), gelatinase A (MMP-2), and the catalytic domains of stromelysin 1 (MMP-3(ΔC)) and membrane-type 1 MMP (MMP-14). As previously reported for the corresponding mutants of N-TIMP-1 and TIMP-2 (17, 18), both mutations in N-TIMP-3 reduced the inhibitory activity towards the four MMPs by 2 to 3 orders of magnitude (Table I). FIG. 2A highlights the difference in inhibition of MMP-14(CD) by wild-type and mutated N-TIMP-3.
Ki(app) determinations for MMP-1, MMP-2 and MMP-3 were performed as set out in Example 1.

- Ki (Table 3): 5.1 ± 1 nM
B1: N-TIMP-3: N-terminal inhibitory domain of TIMP-3 (residues 1 to 121), C-terminally His-tagged, wild-type (protein)
chain: CTCSPSHPQDAFCNSDIVIRAKVVGKKLVKEGPFGTLVYTIKQMKMYRGFTKMPHVQYIHTEASESLCGLKLEVNKYQYLLTGRVYDGKMYTGLCNFVERWDQLTLSQRKGLNYRYHLGCN

- Ki (Table 3): > 1000 nM
- Ki (Table I, enzyme 1 nM, pH 7.5): 614 ± 32 nM
B2: -1A: N-TIMP-3 mutant with the addition of an N-terminal alanine extension (-1A) (protein)
chain: ACTCSPSHPQDAFCNSDIVIRAKVVGKKLVKEGPFGTLVYTIKQMKMYRGFTKMPHVQYIHTEASESLCGLKLEVNKYQYLLTGRVYDGKMYTGLCNFVERWDQLTLSQRKGLNYRYHLGCN

- Inhibition of MMP-2 (100 nM): no inhibition
B3: (-2A)N-TIMP-3: N-TIMP-3 mutant with two alanine residues on the N-terminal side of Cysteine1 of the TIMP-3 sequence (protein)
chain: AACTCSPSHPQDAFCNSDIVIRAKVVGKKLVKEGPFGTLVYTIKQMKMYRGFTKMPHVQYIHTEASESLCGLKLEVNKYQYLLTGRVYDGKMYTGLCNFVERWDQLTLSQRKGLNYRYHLGCN
